Experimental findings from article PMC8528238 (Nature, 2021) are described below.

The target of the assay is batCoV-SHC014 S-2P (Bat SARS-like coronavirus RsSHC014, UniProt U5WLK5, stabilised). Briefly: ELISA. A general note: In an ELISA, binding on a coated surface is turned into a signal by an enzyme label.

B1: DH1047, cross-neutralizing RBD antibody (antibody, V domains shown)
VH: QVQLVQSGAEVKKPGASVQVSCQASANTFTNHYIHWVRQAPGQGLEWMGIIYPTGGNTIYAQGFQGRVTMTRDTSLNTIYLELSSLRSEDTAVYYCARDVRVDDSWSGYDLLSGGTYFDYWGQGTLVTVSS
VL: not shown
Consider B1, for which the binding result was “binds”.
